Source: patent US5688912A, “Peptide ligands which bind to von willebrand factor” (Bayer Corporation, priority 1995, dated 1997)
No end group written: not given here.

Columns and labels:
Assay type in all cases: binding
[1] = biological target: T1, von Willebrand Factor (vWF) (Homo sapiens, UniProt P04275); assay: Peptide-Toyopearl affinity column chromatography of Koate; vWF in fractions by ELISA, protein by A280; design: Koate® containing vWF, FVIII, and albumin was a product of Bayer Corp; tissue Bayer Corp. (Clayton, N.C.) Koate; host or cells: plasma-derived concentrate (Koate); conditions: for % vWF by ELISA, flow through / % area of acid peak / % vWF by ELISA, acid / % vWF by ELISA, salt: Table 2; for % vWF by ELISA, flow through / % area of acid peak: 1 ml column; for % area of acid peak: 2% acetic acid peak; for % vWF by ELISA, salt: NaCl gradient eluate
Description: The gel slurry (1 ml wet gel mixed with 2 ml degassed PBS and 1 M sodium chloride buffer) was transferred into a packing device (from PerSeptive Biosystems, Framingham, Mass.) and packed into a PEEK column (0.75 cm×5 cm from Alltech, Deerfield, Ill.) at a flow rate of 8 ml/min. […] The column was washed with at least 4 bed volumes of binding buffer (10 mM HEPES, 100 mM NaCl, 5 mM calcium chloride at pH 7) and elution buffer (2% acetic acid), then equilibrated with binding buffer.
Protein concentrations were monitored by A280 absorbance. Samples were characterized using vWF ELISA. Briefly, anti-vWF antibody (from Accurate Inc. N.Y.) was coated on each well of a microliter plate (96 wells from Corning, N.Y. 14831) overnight using 100 μl solution of antibody diluted 200 times in 0.1M sodium bicarbonate buffer at pH 9.6. Each well was then blocked with 300 μl solution of 1% BSA in PBS for 1 hour at room temperature. The plate was washed 5 times with PBS. Pure vWF and the collected samples were diluted to a concentration range between 0.02 to 0.2 μg/ml using 1 mg/ml BSA in PBS. Each sample (100 μl) was incubated with the anti-vWF coated well for 1 hour at room temperature and the plate was washed 5 times with PBS plus 0.1% Tween 20. A second anti-vWF antibody with horse radish peroxidase (HRP) conjugate (from DAKO, Glostrup, Denmark) at a concentration of 1 to 500 dilution was introduced to each well and incubated for i hour at room temperature. The plate was washed again with PBS plus 0.1% Tween 20 for 5 times. Substrate ABTS (2,2'-azino-bis(3-ethylbenz-thiazoline-6-sulfonic acid)) and H2 O2 were used for the kinetic reading at 410 nm using Bio Kinetics Reader from BioTek (Winooski, Vt.).
Peptide RLRSFY was directly synthesized (25) onto a modified Toyopearl resin (--(β-Ala)2 -Toyopearl) and the resin was packed in a 1 ml column (0.7×2.5 cm). Koate (Bayer's product containing vWF, FVIII and human albumin) was applied to the column at a flow rate of 2 ml/min in binding buffer (10 mM HEPES, 5 mM calcium chloride and 0.1M NaCl, pH 7). After 1 min of washing in binding buffer, a linear gradient from 0.1 to 1M NaCl in HEPES buffer was applied to the column over 5 min. The elution with high salt concentration was maintained for another 1 min, before 2% acetic acid was used to elute the retained protein. […] The remainder was eluted using 2% acetic acid. In a control experiment in which no peptide was attached to the resin (only --(β-Ala)2 -Toyopearl), almost all protein from 0.1 ml Koate flowed through the column under the same conditions used for the peptide-Toyopearl column.
Single conservative amino acid substitutions at the first three positions of RLRSFY were synthesized directly on (β-Ala)2 -Toyopearl. Amino acid substitutions used for both positions of arginine (R) were histidine (H), lysine (K), glutamine (Q), and asparagine (N). Substitutions for leucine (L) include isoleucine (I), valine (V), phenylalanine (F), and tyrosine (Y). These individual substitutions created 12 unique peptide sequences. (SEQ ID NOS: 1 to 12 ) After the resins were packed into 1 ml glass columns, 0.1 ml Koate was applied to each column and eluted with sodium chloride gradient and 2% acetic acid, same as in FIG. 1. Fractions were collected and analyzed for A280 absorbance and ELISA. […] The substitution of the R at the third position from the N-terminus had no effect on the capture of vWF from Koate. […] Maximum vWF binding occurred when L was substituted for V.

[2] = biological target: T1, von Willebrand Factor (vWF); assay: Batch adsorption isotherm of vWF onto peptide-Toyopearl, Langmuir fit; design: Koate® containing vWF, FVIII, and albumin was a product of Bayer Corp; tissue Bayer Corp. (Clayton, N.C.) Koate; host or cells: plasma-derived concentrate (Koate); conditions: vWF around 1000 kDa; peptide directly synthesized on Toyopearl; Langmuir fit
Description: Adsorption isotherms were measured in a batch mode. In a siliconized microcentrifuge tube, 0.1 ml wet gel was mixed with vWF solution of 10 mM HEPES, 5 mM calcium chloride and 0.5M sodium chloride at pH 7 in a total volume of 0.3 ml. The microcentrifuge tube was incubated at 25° C. for 20 minutes, then the gel was separated from the solution by microcentrifugation. The concentrations of vWF in solutions were measured both by absorbance at 280 nm with an extinction coefficient of 1.2 for 1 mg/ml vWF and by ELISA.
Interactions between RVRSFY directly synthesized on Toyopearl and vWF were studied through adsorption isotherm measurements. Because vWF consists of a wide range of molecular weights, complex theoretical analyses are required to obtain binding constants from the adsorption isotherms. In addition, different multimers of vWF may have different binding constants. To simplify the analyses, vWF with molecular weight around 1000 kDa was fractionated from Koate using size exclusion chromatography with Bio-Gel A-5M gel (BioRad) and analyzed by nonreducing agarose gel electrophoresis.
An increase of peptide density increases adsorption of vWF. A minimum peptide density, 32 mg peptide Ac-RVRSFYK/ml resin ([…]), is required for the binding of vWF to the peptide. The Langmuir equation was used to fit these isotherms, and the association constants and maximum capacities obtained from curve fits are listed in Table 3. They show an increase of association constant and maximum binding capacity with an increase of peptide density mobilized on the Toyopearl resin.

[3] = biological target: T1, von Willebrand Factor (vWF); assay: Purification of vWF from cryoprecipitate PEG filtrate of human plasma on peptide-Toyopearl column; conditions: PEG filtrate; 0.15M and 0.35M NaCl washes, 2% acetic acid elution
Description: The starting material called PEG filtrate was processed from human plasma cryoprecipitate at Bayer Corp. (Clayton, N.C.). This material contained vWF, FVIII, significant fibrinogen, fibronectin, and IgM. The PEG filtrate was treated with 1% TNBP (tri-n-butylphosphate) and 0.5 % Tween 20 (from Aldrich) at 30° C. for 3 hours. After the treatment, the mixture was directly injected onto peptide affinity columns.
Confirmation of the purification of vWF on RVRSFY-Toyopearl was performed using PEG filtrate as the starting material (FIG. 2). Inclusion of a 0.15M NaCl wash and an additional 0.35M NaCl wash removed the bulk of the albumin. Bound vWF was eluted with 2% acetic acid.
The PEG filtrate was treated with virus inactivation reagents, 1% TNBP and 0.5% Tween 20 at 30° C. for 3 hours. The treated PEG fitrate was injected directly into the column. […] Approximately 74% of the total vWF was eluted with 0.35M CaCl2 (small peak at 10 min).

Row | Substance | % vWF by ELISA, flow through ([1]; 0.1 ml Koate) | % area of acid peak ([1]; 0.1 ml Koate) | % vWF by ELISA, acid ([1]; 2% acetic acid eluate) | % vWF by ELISA, salt [1] | other results
1 | HLRSFY (not fully specified (C-terminus)) | 0.75% | 26.7% | 32.7% | 0.28% | 
2 | KLRSFY (not fully specified (C-terminus)) | 1.03% | 27.1% | 26.94% | 9.83% | 
3 | NLRSFY (not fully specified (C-terminus)) | 19.96% | 14.8% | 6.98% | 11.88% | 
4 | QLRSFY (not fully specified (C-terminus)) | 29.45% | 9.2% | 2.20% | 11.69% | 
5 | RFRSFY (not fully specified (C-terminus)) | 0.20% | 27.8% | 47.96% | 0.07% | 
6 | RIRSFY (not fully specified (C-terminus)) | 1.92% | 28.0% | 44.78% | 4.09% | 
7 | RLHSFY (not fully specified (C-terminus)) | 1.77% | 24.9% | 50.72% | 2.89% | 
8 | RLKSFY (not fully specified (C-terminus)) | 0.60% | 25.1% | 45.58% | 3.59% | 
9 | RLNSFY (not fully specified (C-terminus)) | 0.26% | 24.5% | 47.68% | 1.50% | 
10 | RLQSFY (not fully specified (C-terminus)) | 0.46% | 20.1% | 50.68% | 0.54% | 
11 | RLRSFY (not fully specified (C-terminus)) [RLRSFY-Toyopearl, phage-library-derived peptide directly synthesized onto modified Toyopearl resin (--(β-Ala)2-Toyopearl)] |  |  |  |  | protein that did not bind to the peptide resin or was loosely bound and eluted by sodium chloride ([1]; 0.1 ml Koate): about 60%; A280, flow through ([1]; 0.1 ml Koate (input A280 7.8), flow through fraction ×4 ml): 0.071; A280, acid ([1]; 0.1 ml Koate, 2% acetic acid fraction ×4 ml): 0.070; A280, salt ([1]; 0.1 ml Koate, NaCl gradient 0.1 to 1M fraction ×12 ml): 0.014; vWF recovered in the acid peak ([1]; Koate, 2% acetic acid): Approximately one-half; retention of vWF by column ([1]; Koate, could not be eluted by sodium chloride up to 1M): Most of the vWF was retained; % vWF activity by ELISA, acid ([1]; Table 1, 0.1 ml Koate, 2% acetic acid eluate): 49.78%; % vWF activity by ELISA, salt ([1]; Table 1, 0.1 ml Koate, NaCl eluate): 0.09%; % vWF activity by ELISA, flow through ([1]; Table 1, 0.1 ml Koate, flow through): 1.6%; % recovery (A280 mass balance) ([1]; total protein recovered from column): 95%
12 | RVRSFY (not fully specified (C-terminus)) | 0.09% | 30.2% | 55.78% | 0.08% | Association constant [2]: 1.31e+06 M⁻¹; purification of vWF (SDS-PAGE) [3]: highly purified
13 | RYRSFY (not fully specified (C-terminus)) | 1.65% | 27.1% | 51.72% | 0.14% | 
